Experimental data published in article PMC4811591, “Role of the Substrate Specificity-Defining Residues of Human SIRT5 in Modulating the Structural Stability and Inhibitory Features of the Enzyme” (PLoS ONE, 2016).
Residue numbers refer to the chain shown, from its start. Names and notes keep the numbering of the source.

What was measured:
Type in all cases: biochemical, human
[1] = substrate: NC(=O)c1ccc[n+]([C@@H]2O[C@H](COP(=O)([O-])OP(=O)(O)OC[C@H]3O[C@@H](n4cnc5c(N)ncnc54)[C@H](O)[C@@H]3O)[C@@H](O)[C@H]2O)c1; experiment: SIRT1 deacetylation reaction, trypsin coupled assay with Fluor-de-lys; conditions: other: deacetylation, acetyl substrate; pH 8.0; 25.0 °C
Protocol: (§1) The steady state rates of the enzyme catalyzed reactions were derived from the time dependent changes in the fluorescence signal, and the data were analyzed by the ternary complex kinetic mechanism (Eq 4) via Grafit 4 software.
(§2) The steady-state kinetic data were fitted globally by the competitive, mixed, and noncompetitive inhibition models using the DYNAFIT software based on the rapid-equilibrium approximation [43]. All the parameters were allowed to float except for the enzyme concentration. The software utilizes several model-discrimination criteria, including the second order Akaike Information Criterion (AIC) [44, 45], so that the best model out of the three different candidates could be identified.

[2] = substrate: NC(=O)c1ccc[n+]([C@@H]2O[C@H](COP(=O)([O-])OP(=O)(O)OC[C@H]3O[C@@H](n4cnc5c(N)ncnc54)[C@H](O)[C@@H]3O)[C@@H](O)[C@H]2O)c1; experiment: SIRT5 wild type desuccinylation reaction, trypsin coupled fluorescence assay with Ac-SucLys-AMC; conditions: other: desuccinylation, succinyl substrate, 25°C, pH 8.0
Protocol: as §1, §2

[3] = substrate: NC(=O)c1ccc[n+]([C@@H]2O[C@H](COP(=O)([O-])OP(=O)(O)OC[C@H]3O[C@@H](n4cnc5c(N)ncnc54)[C@H](O)[C@@H]3O)[C@@H](O)[C@H]2O)c1; experiment: SIRT5 Y102A deacetylation reaction, trypsin coupled assay with Fluor-de-lys; conditions: other: deacetylation, acetyl substrate; pH 8.0; 25.0 °C
Protocol: as §1, §2

[4] = substrate: NC(=O)c1ccc[n+]([C@@H]2O[C@H](COP(=O)([O-])OP(=O)(O)OC[C@H]3O[C@@H](n4cnc5c(N)ncnc54)[C@H](O)[C@@H]3O)[C@@H](O)[C@H]2O)c1; experiment: SIRT5 Y102A desuccinylation reaction, trypsin coupled assay with Ac-SucLys-AMC; conditions: other: desuccinylation, succinyl substrate; pH 8.0; 25.0 °C
Protocol: as §1, §2

[5] = substrate: NC(=O)c1ccc[n+]([C@@H]2O[C@H](COP(=O)([O-])OP(=O)(O)OC[C@H]3O[C@@H](n4cnc5c(N)ncnc54)[C@H](O)[C@@H]3O)[C@@H](O)[C@H]2O)c1; experiment: SIRT5 Y102A/R105I deacetylation reaction, trypsin coupled assay with Fluor-de-lys; conditions: other: deacetylation, acetyl substrate; pH 8.0; 25.0 °C
Protocol: The sirtuin catalyzed deacetylase and desuccinylase reactions were measured via the trypsin coupled assay system as described by Madsen et al [39]. […] Since trypsin was used as a coupling enzyme, its concentration was optimized to ensure the emergence of minimal or negligible lag-phase prior to the onset of the steady state phase [42]. […] The steady state rates of the enzyme catalyzed reactions were derived from the time dependent changes in the fluorescence signal, and the data were analyzed by the ternary complex kinetic mechanism (Eq 4) via Grafit 4 software.
as §2
Other reaction conditions were the same as described above. The data were fitted by Eq 5 by Grafit 4.0.

[6] = substrate: NC(=O)c1ccc[n+]([C@@H]2O[C@H](COP(=O)([O-])OP(=O)(O)OC[C@H]3O[C@@H](n4cnc5c(N)ncnc54)[C@H](O)[C@@H]3O)[C@@H](O)[C@H]2O)c1; experiment: SIRT5 R105I deacetylation reaction, trypsin coupled assay with Fluor-de-lys; conditions: other: deacetylation, acetyl substrate; pH 8.0; 25.0 °C
Protocol: as §1, §2

B1: SIRT1 (Homo sapiens) (protein)
chain: MIGTDPRTILKDLLPETIPPPELDDMTLWQIVINILSEPPKRKKRKDINTIEDAVKLLQECKKIIVLTGAGVSVSCGIPDFRSRDGIYARLAVDFPDLPDPQAMFDIEYFRKDPRPFFKFAKEIYPGQFQPSLCHKFIALSDKEGKLLRNYTQNIDTLEQVAGIQRIIQCHGSFATASCLICKYKVDCEAVRGDIFNQVVPRCPRCPADEPLAIMKPEIVFFGENLPEQFHRAMKYDKDEVDLLIVIGSSLKVRPVALIPSSIPHEVPQILINREPLPHLHFDVELLGDCDVIINELCHRLGGEYAKLCCNPVKLSEITEKPPRTQKELAYLSELPPTPLHVSEDSSSPERTSPPDSSVIVTLLDQAAKSNDDLDVSESKGCMEEKPQEVQTSRNVESIAEQMENPDLKNVGSSTGEKNERTSVAGTVRKCWPNRVAKEQISRRLDGNQYLFLPPNRYIFHGAEVYSDSEDDVLSSSSCGSNSDSGTCQSPSLEEPMEDESEIEEFYNGLEDEPDVPERAGGAGFGTDGDDQEAINEAISVKQEVTDMNYPSNKS
notes: SIRT1 (193–747) and SIRT5 (51–301) were cloned into the pLIC-His expression vector; His tag (pLIC-His vector); made in house; host or cells: E. coli BL21(DE3) Star
Km [1]: 388 ± 73 µM
kcat [1]: 0.000579 ± 9.1e-05 s⁻¹
kcat/Km [1]: 1.63 M⁻¹ s⁻¹

B2: SIRT5 wild type (Homo sapiens) (protein)
chain: KHIVIISGAGVSAESGVPTFRGAGGYWRKWQAQDLATPLAFAHNPSRVWEFYHYRREVMGSKEPNAGHRAIAECETRLGKQGRRVVVITQNIDELHRKAGTKNLLEIHGSLFKTRCTSCGVVAENYKSPICPALSGKGAPEPGTQDASIPVEKLPRCEEAGCGGLLRPHVVWFGENLDPAILEEVDRELAHCDLCLVVGTSSVVYPAAMFAPQVAARGVPVAEFNTETTPATNRFRFHFQGPCGTTLPEAL
notes: as for B1
Km [2]: 69 ± 9 µM

B3: SIRT5 Y102A (Homo sapiens; Y102A) (protein)
chain: B2 chain with Y52A
notes: as for B1
Km [3]: 1605 ± 321 µM
Km [4]: 321 ± 49 µM

B4: SIRT5 Y102A/R105I (Homo sapiens; R105I/Y102A) (protein)
chain: B2 chain with Y52A, R55I
notes: as for B1
Km [5]: 1194 ± 667 µM

B5: SIRT5 R105I (Homo sapiens; R105I) (protein)
chain: B2 chain with R55I
notes: as for B1
Km [6]: 609 ± 120 µM
